Test results reported in US9175053B2, “Chemical preparation of ubiquitin thioesters and modifications thereof” (BEN-GURION UNIVERSITY OF THE NEGEV RESEARCH AND DEVELOPMENT …, priority 2010, dated 2015).
Entries after “also recorded” stand apart in the source; their conditions may differ.

Target: T1, recombinant human ubiquitin C-terminal hydrolase L3 (UCH-L3) (Homo sapiens, UniProt P15374)
T1 construct: purchased Aldrich
T1 sequence (P15374 1-230): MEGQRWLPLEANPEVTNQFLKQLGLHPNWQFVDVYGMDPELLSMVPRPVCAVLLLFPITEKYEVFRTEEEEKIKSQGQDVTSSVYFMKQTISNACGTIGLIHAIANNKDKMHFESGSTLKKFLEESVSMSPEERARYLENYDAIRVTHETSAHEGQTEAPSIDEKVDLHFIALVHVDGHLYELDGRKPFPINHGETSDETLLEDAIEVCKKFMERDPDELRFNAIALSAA
Assay: Enzymatic cleavage of isopeptide by ubiquitin C-terminal hydrolase UCH-L3
Assay type: biochemical
Settings: ~100 μM peptide, 12 hours at 37° C., Tris/NaCl/DTT buffer
Protocol: Purified peptide 8 was dissolved in 482 μL of assay buffer (50 mM Tris, 150 mM NaCl, 1 mM DTT, pH 7.5) to a final concentration of ˜100 μM and reacted with recombinant human ubiquitin C-terminal hydrolase L3 (UCH-L3, Aldrich). 10 μg of UCH-L3 in 15.5 μL of assay buffer containing 50 mM Tris, 150 mM NaCl, 12 mM DTT, pH 8.0 was incubated for 20 minutes at 25° C. To the reduced UCH-L3 was then added 8 in 187 μL. […] The reaction was analyzed using C-4 analytical RP-HPLC employing a gradient of 10-60% B for 30 minutes, in order to identify the hydrolysis.

Substance: 8: α-synuclein(1-17) model peptide ubiquitylated with synthetic Ub-SR via mercaptolysine, then desulfurized (Scheme 6) [Peptide 8]
- hydrolysis of the ubiquitylated peptide by UCH-L3 (RP-HPLC): UCH-L3 substrate; also recorded: complete hydrolysis
